Experimental data published in patent CN116478288A.

Assays:
[1] = target: 食蟹猴CD47 (on overexpressing CHO-K1 cells) (cynomolgus monkey); assay: flow cytometry, control human IgG on CHO-K1 overexpressing cynomolgus CD47 (PBS background 92.8)
[2] = target: 人源CD47 (on cells: hCD47-overexpressing CHO-K1; Raji) (human) (UniProt Q08722); assay: flow cytometry, control human IgG on CHO-K1 overexpressing human CD47 (PBS background 139.0)
UniProt Q08722, sequence (Q08722 19-323): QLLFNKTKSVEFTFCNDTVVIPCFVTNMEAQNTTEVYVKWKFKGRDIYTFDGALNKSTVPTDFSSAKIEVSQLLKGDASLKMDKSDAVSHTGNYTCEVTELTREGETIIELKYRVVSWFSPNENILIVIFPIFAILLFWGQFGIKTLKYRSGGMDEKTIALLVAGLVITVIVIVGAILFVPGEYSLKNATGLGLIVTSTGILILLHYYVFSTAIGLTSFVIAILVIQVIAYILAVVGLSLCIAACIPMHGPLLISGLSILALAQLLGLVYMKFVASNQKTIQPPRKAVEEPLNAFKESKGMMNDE

MFI [1]: 71 MFI
MFI [2]: 101 MFI
Substance: human IgG (antibody)
